Data on 16 molecules can be found in PMC5401885, “Isoprenoid Pyrophosphate-Dependent Transcriptional Regulation of Carotenogenesis in Corynebacterium glutamicum” (Frontiers in Microbiology, 2017).

The target in the first data set is T1, CrtR (His-tagged) (Corynebacterium glutamicum ATCC 13032) (UniProt Q8NSP1).
T1 sequence: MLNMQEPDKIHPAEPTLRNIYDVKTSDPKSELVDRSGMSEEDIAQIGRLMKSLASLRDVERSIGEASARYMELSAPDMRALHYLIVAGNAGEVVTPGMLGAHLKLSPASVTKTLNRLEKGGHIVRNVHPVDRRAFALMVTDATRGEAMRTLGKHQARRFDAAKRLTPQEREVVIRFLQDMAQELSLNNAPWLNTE
Nature of the data set: EMSA. Conditions: 50 mM Tris-HCl pH 7.5, 10% glycerol, 50 mM KCl, 10 mM MgCl2, 0.5 mM EDTA, 20 uL, 90 ng DNA, 30 min at room temperature; 6% DNA retardation gel.
On to “CACCAATACTACGTTCCACATCGCGAAGACTGGCCAACGATTTCATTAGCCGCCCAATTTGCGCAATGTCTTCTTCCGACATGCCAGAACGATCAACTAATTCACTTTTGGGATCACTAGTTTTAACGTCATAAATATTACGAAGTGTAGGTTCTGCCGGATGGATTTTATCTGGTTCCTGCATATTCAGCATAGTAATCACCTTTTTCTACAAAGTCAGATAAAGTTTATTTTTAAAAATATTAACTCATGGG (double strand) [fragment F]”, for which the binding entry was “binds”.

For the molecule “AAAAATATTAACTCATGGGATACTATAAATTTCTTGTAGGCACATTATTTTTATGGACCCAAATTCACACTTTCTGTACTTCATCAAAATAAAGCGCCATATACAACGATTGGGAATTTTTGCGAGATAACTGGCCGTGTGATACTCGA (double strand) [fragment C]”, the binding entry is “binds”.

As to “GTTCGCTACGTCCGAGTGATCACCTACAAGGACGTCAACATCGAAGAATTAGATAAGCCTGACATCATCATGCCTGAG (double strand) [cg2228 upstream fragment]”, the binding result is reported as “no binding”.

Take “AACTCATGGGATACTATAAATTTCTTGTAGGCACATTATTTTTATGGACCCAAATTCACACTTTCTGTACTTCATCAAAATAAAGCGCCATATACAACGATTGGGAATTTTTGCGAGATAACTGGCCGTGTGATACTCGA (double strand) [fragment B]”: the binding result is “no binding”.

As for “CACCAATACTACGTTCCACATCGCGAAGACTGGCCAACGATTTCATTAGCCGCCCAATTTGCGCAATGTCTTCTTCCGACATGCCAGAACGATCAACTAATTCACTTTTGGGATCACTAGTTTTAACGTCATAAATATTACGAAGTGTAGGTTCTGCCGGATGGATTTTATCTGGTTCCTGCATATTCAGCATAGTAATCACCTTTTTCTACAAAGTCAGATAAAGTTTATTTTT (double strand) [fragment G]”, the binding entry is recorded as “no binding”.

In the case of “CATAAAAATAATGTGCCTACAAGAAATTTATAGTATCCCATGAGTTAATATTTTTAAAAATAAACTTTATCTGACTTTGTAGAAAAAGGTGATTACTATGCTGAATATGCAGGAACCAGATAAAATCCATCCGGCAGAACCTACACTTCGTAATATTTATGACGTTAAAACTAGTGATCCCAAAAGTGAATTAGTTGATCGTTCTGGCATGTCGGAAGAAGACATTGCGCAAATTGGGCGGCTAATGAAATCGTTGGCCAGTCTTCGCGATGTGGAACGTAGTATTGGTG (double strand) [fragment D]”, the binding entry was “binds”.

Consider “AAAAATATTAACTCATGGGATACTATCCCGGGCTTGTAGGCACATTATTTTTATGGACCCAAATTCACACTTTCTGTACTTCATCAAAATAAAGCGCCATATACAACGATTGGGAATTTTTGCGAGATAACTGGCCGTGTGATACTCGA (double strand) [fragment H (motif 2 AAATTT to CCCGGG)]”, for which the binding result is given as “binds”.

As for “TCGAGTATCACACGGCCAGTTATCTCGCAAAAATTCCCAATCGTTGTATATGGCGCTTTATTTTGATGAAGTACAGAAAGTGTGAATTTGGGTCCATAAAAATAATGTGCCTACAAGCCCGGGATAGTATCCCATGAGGGCCTATTTTT (double strand)”, the binding entry is reported as “no binding”.

Consider “ATTCAGCATAGTAATCACCTTTTTCTACAAAGTCAGATAAAGTTTATTTTTAAAAATATTAACTCATGGGATACTATAAATTTCTTGTAGGCACATTATTTTTATGGACCCAAATTCACACTTTCTGTACTTCATCAAAATAAAGCGCCATATACAACGATTGGGAATTTTTGCGAGATAACTGGCCGTGTGATACTCGA (double strand) [fragment A (full crtE-crtR intergenic region)]”, for which the binding entry is “binds”.

Consider “CACCAATACTACGTTCCACATCGCGAAGACTGGCCAACGATTTCATTAGCCGCCCAATTTGCGCAATGTCTTCTTCCGACATGCCAGAACGATCAACTAATTCACTTTTGGGATCACTAGTTTTAACGTCATAAATATTACGAAGTGTAGGTTCTGCCGGATGGATTTTATCTGGTTCCTGCATATTCAGCATAGTAATCACCTTTTTCTACAAAGTCAGATAAAGTTTATTTTTAAAAATATTAACTCATGGGATACTATAAATTTCTTGTAGGC (double strand) [fragment E]”, for which the binding result is reported as “binds”.

Regarding “AAAAATAGGCCCTCATGGGATACTATAAATTTCTTGTAGGCACATTATTTTTATGGACCCAAATTCACACTTTCTGTACTTCATCAAAATAAAGCGCCATATACAACGATTGGGAATTTTTGCGAGATAACTGGCCGTGTGATACTCGA (double strand) [fragment I (motif 1 TTAA to GGCC)]”, the binding result is recorded as “no binding”.

In another data set the target is T2, CrtR (CrtRHis6, His-tagged CrtR) (Corynebacterium glutamicum, UniProt Q8NSP1).
T2 construct: gene Cgl0627; full length, 195 aa; N-terminal His-tag (pET16b, decahistidine) kept; expressed in E. coli BL21(DE3); Ni-NTA purified; cloning primers give N-terminus MLNMQE and C-terminus WLNTE
T2 sequence (Q8NSP1 1-195): T1 sequence
Nature of the data set: EMSA, loss of CrtR binding to crtE-crtR intergenic DNA. Conditions: 30-fold molar excess CrtR over DNA; 15 min pre-incubation, room temperature; 50 mM Tris-HCl pH 7.5, 50 mM KCl, 10 mM MgCl2.
As for `CC(C)=CCC/C(C)=C/CC/C(C)=C/CC/C(C)=C/COP(=O)(O)OP(=O)(O)O` [GGPP], the lowest effective concentration came to 50 µM.

The target in a further data set is T2, CrtR (CrtRHis6, His-tagged CrtR). Described as above. Conditions: 30-fold molar excess CrtR over DNA; 15 min pre-incubation, room temperature; 50 mM Tris-HCl pH 7.5, 50 mM KCl, 10 mM MgCl2. This is another data set of the same source.
Regarding `CC(C)=CCC/C(C)=C/CC/C(C)=C/COP(=O)(O)OP(=O)(O)O` [FPP, farnesyl pyrophosphate], the “EMSA, loss of CrtR binding to crtE-crtR intergenic DNA” value (“EMSA, loss of CrtR binding” below) is “farnesyl pyrophosphate (FPP) and GGPP perturbed binding of His-tagged CrtR to the intergenic region”.

On to `CC(C)=CCOP(=O)(O)OP(=O)(O)O` [DMAPP, dimethylallyl pyrophosphate], for which the “EMSA, loss of CrtR binding” value is “FPP, GPP, IPP and DMAPP exerted similar effects on CrtR binding in vitro”.

On to `C=C(C)CCOP(=O)(O)OP(=O)(O)O` [IPP, isopentenyl pyrophosphate], for which the “EMSA, loss of CrtR binding” value was “FPP, GPP, IPP and DMAPP exerted similar effects on CrtR binding in vitro”.

In the case of `CC(C)=CCC/C(C)=C/COP(=O)(O)OP(=O)(O)O` [GPP, geranyl pyrophosphate], the “EMSA, loss of CrtR binding” value was “FPP, GPP, IPP and DMAPP exerted similar effects on CrtR binding in vitro”.
